Results published in patent publication US11572394B2, “Peptides for targeting LRP6-overexpressed cells” (PASTEUR INSTITUTE OF IRAN, priority 2020, dated 2023).

Key:
Format in all cases: cell-based, human
[1] = system: Wnt signaling pathway, HUVEC cell line; assay: Western blotting of LRP6 and β-catenin proteins with signal densitometry; details: Western blot
Experimental: (§1) In this example, the effect of exemplary peptides on the expression of LRP6 and downstream genes of the Wnt signaling pathway, such as β-catenin, cyclin D1, and C-MYC, was evaluated at transcription level using real-time PCR and at translation level using Western blotting. The Gapdh gene was used as the reference gene. The expression fold change of more than 2 times (treated cell against untreated cell) was defined as increasing expression, and cases with a fold change of 0.5 to 2 were unchanged, and cases with expression fold change less than 0.5 were considered as a reduction in expression.
Also, the effect of exemplary peptides on the levels of LRP6 and β-catenin proteins in the β-catenin/Wnt signaling pathway was investigated by Western blotting. Also, each protein's relative expression was determined through signal densitometry of each Western blot band. FIG. 11A illustrates relative expression β-actin, β-catenin, and LRP6 in SW480, HCT116, and HUVEC cell lines, consistent with one or more exemplary embodiments of the present disclosure. Referring to FIG. 11A, the relative expressions of β-catenin and LRP6 in SW480 and HCT116 were higher than HUVEC as a normal cell.

[2] = system: Wnt signaling pathway, SW480 cell line; assay: as above; details: SW480, Western blot
Experimental: as §1
(§2) Also, the effect of exemplary peptides on the levels of LRP6 and β-catenin proteins in the β-catenin/Wnt signaling pathway was investigated by Western blotting. Also, each protein's relative expression was determined through signal densitometry of each Western blot band.

[3] = system: Wnt signaling pathway, HCT116 cell line; assay: as above; details: HCT116, Western blot
Experimental: as §1, §2

[4] = system: HCT116; assay: Cell cycle analysis by flow cytometry (DNA content); details: HCT116, 24 hours
Experimental: (§3) In this example, the effect of exemplary peptides on the cell cycle was determined through flow cytometry and measurement of DNA content in cells. In this experiment, HCT116, SW480, and HUVEC cell lines were cultured in 24-well plates and treated with 1 mM of each exemplary peptide for 24 hours.
(§4) The cell proliferation index may be calculated by dividing the percentage of cells present in the S and G2 stages by the percentage of cells in the G1, S, and G2 stages. […] Also, the proliferation index in SW480 and HCT116 cell lines decreased after treatment with exemplary peptides (SEQ ID NOs: 1-4). On the other hand, the decrease in the proliferation index of HUVEC cells was smaller than that of SW480 and HCT116 cell lines.

[5] = system: HUVEC; assay: as above; details: 24 hours
Experimental: as §3, §4

[6] = system: SW480; assay: as above; details: SW480, 24 hours
Experimental: as §3, §4

[7] = system: Wnt signaling pathway, SW480 cell line; assay: Real-time PCR of LRP6 and downstream genes of the Wnt signaling pathway; details: treated against untreated
Experimental: as §1

[8] = system: Wnt signaling pathway, HUVEC cell line; assay: as above; details: treated against untreated
Experimental: as §1

[9] = system: Wnt signaling pathway, HCT116 cell line; assay: as above; details: treated against untreated
Experimental: as §1

B1: DKK1: Dickkopf-related protein 1, natural inhibitor of the Wnt signaling pathway, antagonist ligand of LRP6, negative control (protein)
chain: TLNSVLNSNAIKNLPPPLGGAAGHPGSAVSAAPGILYPGGNKYQTIDNYQPYPCAEDEECGTDEYCASPTRGGDAGVQICLACRKRRKRCMRHAMCCPGNYCKNGICVSSDQNHFRGEIEETITESFGNDHSTLDGYSRRTTLSSKMYHTKGQEGSVCLRSSDCASGLCCARHFWSKICKPVLKEGQVCTKHRRKGSHGLEIFQRCYCGEGLSCRIQKDHHQASNSSRLHTCQRH
level of LRP6 protein [1]: did not alter | level of LRP6 protein [2]: did not alter | level of LRP6 protein [3]: did not alter | S and G2/M stage percentage [4]: decreased | percentage of cells in the G0/G1 stage [4]: increased | S and G2/M stage percentage [5]: decreased | percentage of cells in the G0/G1 stage [5]: increased | S and G2/M stage percentage [6]: decreased | percentage of cells in the G0/G1 stage [6]: increased

B2: Wnt3a: Wnt3a protein, positive control of the Wnt signaling pathway (protein, UniProt P56704 19-352, looked up)
Protein Wnt-3a: SYPIWWSLAVGPQYSSLGSQPILCASIPGLVPKQLRFCRNYVEIMPSVAEGIKIGIQECQHQFRGRRWNCTTVHDSLAIFGPVLDKATRESAFVHAIASAGVAFAVTRSCAEGTAAICGCSSRHQGSPGKGWKWGGCSEDIEFGGMVSREFADARENRPDARSAMNRHNNEAGRQAIASHMHLKCKCHGLSGSCEVKTCWWSQPDFRAIGDFLKDKYDSASEMVVEKHRESRGWVETLRPRYTYFKVPTERDLVYYEASPNFCEPNPETGSFGTRDRTCNVSSHGIDGCDLLCCGRGHNARAERRREKCRCVFHWCCYVSCQECTRVYDVHTCK
S and G2/M stage percentage [4]: higher percentage | S and G2/M stage percentage [5]: higher percentage | S and G2/M stage percentage [6]: higher percentage | expression of C-MYC gene [7]: increasing | expression of LRP6 gene [7]: increasing | expression of cyclin D1 gene [7]: increasing | expression of β-catenin gene [7]: increasing | expression of C-MYC gene [8]: did not change | expression of LRP6 gene [8]: did not change | expression of cyclin D1 gene [8]: did not change | expression of β-catenin gene [8]: did not change | expression of C-MYC gene [9]: increasing | expression of LRP6 gene [9]: increasing | expression of cyclin D1 gene [9]: increasing | expression of β-catenin gene [9]: increasing
